Measurements from patent US20130224145A1.

Target: Fas on the cell surface of human Jurkat T cell line (human) (UniProt P25445)
Assay: cell-based or functional assay

Chain of UniProt P25445 (P25445 26-335): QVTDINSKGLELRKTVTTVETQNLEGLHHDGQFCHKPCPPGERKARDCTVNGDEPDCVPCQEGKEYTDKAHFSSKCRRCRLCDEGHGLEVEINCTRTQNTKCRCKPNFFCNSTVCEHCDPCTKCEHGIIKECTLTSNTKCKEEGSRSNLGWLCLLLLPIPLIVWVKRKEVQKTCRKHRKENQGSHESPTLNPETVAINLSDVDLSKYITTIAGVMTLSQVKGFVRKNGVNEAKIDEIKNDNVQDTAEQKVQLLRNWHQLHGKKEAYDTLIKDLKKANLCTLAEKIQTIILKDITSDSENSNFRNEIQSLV

dead cells (Propidium Iodide staining of Jurkat T cells after 24 hr): 87%
Substance: streptavidin-FasL fusion protein (SAFasL) (from UniProt P48023 103-281) (ligand)
cytotoxicity relative to the anti-Fas antibody: 3 times
